# Reference: PMC3747585
# How the values were obtained:
# [1] = biological target: CspA (full-length CspA^26–251) from Borrelia burgdorferi (Borrelia burgdorferi); assay: ELISA
# [2] = biological target: NT-647-labeled human C7 (human) (UniProt P10643); assay: MST
# [3] = biological target: NT-647-labeled human C9 (human) (UniProt P02748); assay: MST
# factor H, sequence (P08603 19-1231): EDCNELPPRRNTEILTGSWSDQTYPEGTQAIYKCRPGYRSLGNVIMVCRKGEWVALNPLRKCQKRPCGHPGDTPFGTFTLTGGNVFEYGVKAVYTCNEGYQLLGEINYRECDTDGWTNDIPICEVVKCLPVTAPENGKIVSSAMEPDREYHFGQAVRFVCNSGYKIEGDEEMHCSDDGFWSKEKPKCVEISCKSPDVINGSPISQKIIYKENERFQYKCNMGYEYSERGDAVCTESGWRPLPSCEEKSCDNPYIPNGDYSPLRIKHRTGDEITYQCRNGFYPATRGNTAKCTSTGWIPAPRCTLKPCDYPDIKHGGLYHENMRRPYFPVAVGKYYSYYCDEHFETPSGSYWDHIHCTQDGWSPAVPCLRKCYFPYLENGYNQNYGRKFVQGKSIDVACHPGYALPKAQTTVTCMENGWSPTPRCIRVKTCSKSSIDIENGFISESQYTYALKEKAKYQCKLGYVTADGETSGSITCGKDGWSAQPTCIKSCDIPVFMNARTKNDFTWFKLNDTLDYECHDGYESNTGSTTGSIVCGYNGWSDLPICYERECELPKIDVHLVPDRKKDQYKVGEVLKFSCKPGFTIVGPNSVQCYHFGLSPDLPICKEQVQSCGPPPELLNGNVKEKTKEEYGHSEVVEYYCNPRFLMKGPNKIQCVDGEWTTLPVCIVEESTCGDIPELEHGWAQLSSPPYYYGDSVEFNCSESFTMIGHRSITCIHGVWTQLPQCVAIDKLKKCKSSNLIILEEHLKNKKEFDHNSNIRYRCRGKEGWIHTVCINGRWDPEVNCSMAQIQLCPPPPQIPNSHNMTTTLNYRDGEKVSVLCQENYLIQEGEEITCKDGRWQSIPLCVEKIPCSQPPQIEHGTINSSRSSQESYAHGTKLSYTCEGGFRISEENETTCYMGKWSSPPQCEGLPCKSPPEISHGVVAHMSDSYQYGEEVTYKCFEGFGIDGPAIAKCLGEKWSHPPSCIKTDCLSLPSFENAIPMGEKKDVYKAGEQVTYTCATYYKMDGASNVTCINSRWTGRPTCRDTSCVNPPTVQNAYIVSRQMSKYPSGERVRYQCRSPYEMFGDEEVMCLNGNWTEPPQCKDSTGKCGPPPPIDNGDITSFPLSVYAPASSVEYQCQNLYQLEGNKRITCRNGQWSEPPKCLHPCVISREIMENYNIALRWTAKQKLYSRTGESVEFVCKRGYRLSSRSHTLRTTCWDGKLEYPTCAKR
substance,measurement,setting,value
human terminal complement component C9 (from UniProt P02748 22-559) (natural protein),percent inhibition of binding by NaCl at 0.15 M,[1],35%
human terminal complement component C7 (from UniProt P10643 23-843) (natural protein),percent reduction of binding by NaCl at 0.15 M,[1],60%
same,percent reduction of binding by heparin at 500 µg/ml,[1],42%
factor H (from UniProt P08603 19-1231) (natural protein),percent reduction of C7 binding to CspA by factor H at 5 µg/ml,[1],17%
same,percent reduction of C9 binding to CspA by factor H at 5 µg/ml,[1],23%
CspA (full-length CspA^26–251) from Borrelia burgdorferi (natural protein),Kd,[2],5.1 µM
same,Kd,[3],3.4 µM
